What was measured:
[1] = molecular target: T1, mSNAPc#2 SNAP50-R151A (Homo sapiens, UniProt Q5SXM2;Q92966;Q16533;O75971 1-505;1-411;1-268;1-98, R151A); experiment: SPR; EMSA: 100 mM KCl, 25 mM HEPES-K pH 7.6, 12.5 mM MgCl2, 10 uM ZnCl2, 0.1 mM EDTA, 10% glycerol, 3 mM DTT, 0.5 mM PMSF, 50 nM DNA, RT 30 min; SPR: 100 mM KCl, 12.5 mM MgCl2, 10 uM ZnCl2, 0.1 mM EDTA, 0.05% P20, 25 C; details: protein: recombinant; tags: as P1; copies: 1;1;1;1
T1 sequence 1: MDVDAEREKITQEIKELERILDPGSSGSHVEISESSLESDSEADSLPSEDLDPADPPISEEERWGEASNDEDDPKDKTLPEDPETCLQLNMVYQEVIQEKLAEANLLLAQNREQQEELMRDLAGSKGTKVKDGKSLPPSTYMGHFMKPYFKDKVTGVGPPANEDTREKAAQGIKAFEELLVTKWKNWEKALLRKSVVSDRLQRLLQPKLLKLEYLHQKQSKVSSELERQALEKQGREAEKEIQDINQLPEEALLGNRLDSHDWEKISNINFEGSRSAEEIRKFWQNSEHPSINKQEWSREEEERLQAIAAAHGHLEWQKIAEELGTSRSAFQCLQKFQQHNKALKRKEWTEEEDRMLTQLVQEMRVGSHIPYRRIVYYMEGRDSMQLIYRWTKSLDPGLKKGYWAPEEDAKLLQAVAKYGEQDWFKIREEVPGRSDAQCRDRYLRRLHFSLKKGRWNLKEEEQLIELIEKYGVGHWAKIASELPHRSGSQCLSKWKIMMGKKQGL
T1 sequence 2: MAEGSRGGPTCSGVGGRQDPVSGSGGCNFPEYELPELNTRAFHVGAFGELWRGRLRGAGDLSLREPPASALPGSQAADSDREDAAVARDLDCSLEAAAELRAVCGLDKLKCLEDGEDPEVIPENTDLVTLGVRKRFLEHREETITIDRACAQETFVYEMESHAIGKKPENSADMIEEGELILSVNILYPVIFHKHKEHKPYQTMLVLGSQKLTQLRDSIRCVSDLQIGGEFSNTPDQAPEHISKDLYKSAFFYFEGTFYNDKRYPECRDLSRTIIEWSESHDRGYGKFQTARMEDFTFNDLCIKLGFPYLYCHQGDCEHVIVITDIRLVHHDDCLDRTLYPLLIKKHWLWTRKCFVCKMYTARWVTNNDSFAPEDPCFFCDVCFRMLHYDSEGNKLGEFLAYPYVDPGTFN
T1 sequence 3: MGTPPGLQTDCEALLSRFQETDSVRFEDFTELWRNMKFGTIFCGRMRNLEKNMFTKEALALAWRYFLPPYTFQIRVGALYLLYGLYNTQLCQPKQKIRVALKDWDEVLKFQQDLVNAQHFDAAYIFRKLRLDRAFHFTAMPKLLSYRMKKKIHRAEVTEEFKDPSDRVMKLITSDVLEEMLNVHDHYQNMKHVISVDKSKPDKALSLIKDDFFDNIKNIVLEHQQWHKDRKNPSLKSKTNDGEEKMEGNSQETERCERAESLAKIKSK
T1 sequence 4: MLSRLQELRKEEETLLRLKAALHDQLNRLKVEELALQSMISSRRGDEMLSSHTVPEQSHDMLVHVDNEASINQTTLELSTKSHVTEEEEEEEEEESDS

[2] = molecular target: T2, mSNAPc#2 SNAP50-W350A (Homo sapiens, UniProt Q5SXM2;Q92966;Q16533;O75971 1-505;1-411;1-268;1-98, W350A); experiment: as above; details: protein: recombinant; tags: as P1; copies: 1;1;1;1
T2 sequence 1: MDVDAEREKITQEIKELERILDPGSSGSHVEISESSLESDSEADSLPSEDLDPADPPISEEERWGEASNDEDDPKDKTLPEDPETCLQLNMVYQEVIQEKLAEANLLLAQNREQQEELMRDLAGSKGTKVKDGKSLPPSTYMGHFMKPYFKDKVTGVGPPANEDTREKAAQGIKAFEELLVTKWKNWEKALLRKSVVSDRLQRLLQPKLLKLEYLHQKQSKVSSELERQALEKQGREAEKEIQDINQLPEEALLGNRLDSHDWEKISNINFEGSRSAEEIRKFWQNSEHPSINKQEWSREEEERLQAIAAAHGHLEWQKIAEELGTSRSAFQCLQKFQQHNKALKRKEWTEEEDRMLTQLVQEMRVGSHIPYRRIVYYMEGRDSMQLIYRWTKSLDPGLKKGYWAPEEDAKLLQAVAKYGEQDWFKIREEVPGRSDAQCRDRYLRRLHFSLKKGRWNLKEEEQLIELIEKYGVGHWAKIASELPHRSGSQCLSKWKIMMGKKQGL
T2 sequence 2: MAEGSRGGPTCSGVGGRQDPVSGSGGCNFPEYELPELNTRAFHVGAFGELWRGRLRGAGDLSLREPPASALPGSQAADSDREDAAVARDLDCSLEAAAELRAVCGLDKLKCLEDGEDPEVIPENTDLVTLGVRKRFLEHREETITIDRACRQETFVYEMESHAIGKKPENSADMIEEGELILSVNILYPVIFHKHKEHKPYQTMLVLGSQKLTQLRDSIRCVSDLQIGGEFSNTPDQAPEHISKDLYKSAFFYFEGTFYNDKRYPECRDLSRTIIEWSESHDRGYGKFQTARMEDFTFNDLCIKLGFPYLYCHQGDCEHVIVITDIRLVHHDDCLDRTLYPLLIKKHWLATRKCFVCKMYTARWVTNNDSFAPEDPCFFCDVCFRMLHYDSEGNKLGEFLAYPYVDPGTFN
T2 sequence 3: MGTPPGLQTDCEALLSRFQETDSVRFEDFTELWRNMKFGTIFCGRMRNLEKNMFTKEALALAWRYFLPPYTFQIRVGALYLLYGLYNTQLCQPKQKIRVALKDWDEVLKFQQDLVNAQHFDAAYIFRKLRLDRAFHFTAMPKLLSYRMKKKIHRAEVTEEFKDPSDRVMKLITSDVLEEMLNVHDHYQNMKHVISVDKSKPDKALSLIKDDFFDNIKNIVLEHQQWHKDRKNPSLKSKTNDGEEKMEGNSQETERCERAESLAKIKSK
T2 sequence 4: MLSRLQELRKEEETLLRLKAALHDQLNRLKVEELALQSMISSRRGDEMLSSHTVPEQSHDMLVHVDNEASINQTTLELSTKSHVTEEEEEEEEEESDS

[3] = molecular target: T3, mSNAPc#2 WT (Homo sapiens, UniProt Q5SXM2;Q92966;Q16533;O75971 1-505;1-411;1-268;1-98); experiment: SPR; protein immobilized; EMSA: 100 mM KCl, 25 mM HEPES-K pH 7.6, 12.5 mM MgCl2, 10 uM ZnCl2, 0.1 mM EDTA, 10% glycerol, 3 mM DTT, 0.5 mM PMSF, 50 nM DNA, RT 30 min; SPR: 100 mM KCl, 12.5 mM MgCl2, 10 uM ZnCl2, 0.1 mM EDTA, 0.05% P20, 25 C; details: protein: recombinant; tags: FLAG N-term SNAP190; 6xHis N-term SNAP43; copies: 1;1;1;1
T3 sequence 1: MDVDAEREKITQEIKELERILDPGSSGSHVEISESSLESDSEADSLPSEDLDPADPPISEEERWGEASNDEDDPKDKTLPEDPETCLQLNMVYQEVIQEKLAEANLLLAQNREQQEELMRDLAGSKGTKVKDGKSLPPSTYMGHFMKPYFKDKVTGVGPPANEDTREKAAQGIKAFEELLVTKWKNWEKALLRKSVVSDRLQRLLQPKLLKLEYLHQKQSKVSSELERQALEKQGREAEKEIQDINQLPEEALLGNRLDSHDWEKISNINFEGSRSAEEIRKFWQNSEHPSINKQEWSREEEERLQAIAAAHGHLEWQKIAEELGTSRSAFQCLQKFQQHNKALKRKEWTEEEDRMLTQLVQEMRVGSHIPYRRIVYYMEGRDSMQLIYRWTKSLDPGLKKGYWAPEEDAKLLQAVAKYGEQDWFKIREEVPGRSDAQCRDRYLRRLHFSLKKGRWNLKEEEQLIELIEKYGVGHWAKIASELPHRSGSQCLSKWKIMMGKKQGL
T3 sequence 2: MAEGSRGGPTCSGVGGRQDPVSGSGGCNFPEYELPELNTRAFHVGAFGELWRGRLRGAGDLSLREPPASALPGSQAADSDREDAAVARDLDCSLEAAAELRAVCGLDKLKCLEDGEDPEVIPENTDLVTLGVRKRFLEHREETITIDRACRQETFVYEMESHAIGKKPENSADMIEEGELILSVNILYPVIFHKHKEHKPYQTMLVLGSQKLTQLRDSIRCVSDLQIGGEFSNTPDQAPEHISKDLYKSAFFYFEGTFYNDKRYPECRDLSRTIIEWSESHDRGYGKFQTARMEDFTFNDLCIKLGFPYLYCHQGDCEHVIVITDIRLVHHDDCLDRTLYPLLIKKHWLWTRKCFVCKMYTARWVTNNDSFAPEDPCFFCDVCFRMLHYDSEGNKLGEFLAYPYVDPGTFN
T3 sequence 3: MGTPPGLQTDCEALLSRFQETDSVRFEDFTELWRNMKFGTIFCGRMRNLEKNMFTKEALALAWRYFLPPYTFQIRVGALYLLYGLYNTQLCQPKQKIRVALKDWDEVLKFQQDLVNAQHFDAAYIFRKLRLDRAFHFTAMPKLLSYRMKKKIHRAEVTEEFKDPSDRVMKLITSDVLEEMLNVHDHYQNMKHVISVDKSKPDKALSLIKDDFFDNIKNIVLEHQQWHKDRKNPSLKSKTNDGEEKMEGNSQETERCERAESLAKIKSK
T3 sequence 4: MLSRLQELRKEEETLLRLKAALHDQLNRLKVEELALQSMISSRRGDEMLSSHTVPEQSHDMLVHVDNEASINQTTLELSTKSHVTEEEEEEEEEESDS

B1: 25 bp hU6-1 PSE (SPR) (dsDNA)
DNA 1: TGCTTACCGTAACTTGAAAGTATTT
DNA 2: AAATACTTTCAAGTTACGGTAAGCA
Kd [1]: 1150 nM
Kd [2]: 887 nM
Kd [3]: 289 nM

From publication PMC9652321, “Structural basis of human SNAPc recognizing proximal sequence element of snRNA promoter”
